From PMC5883314, “Soluble expression of an amebic cysteine protease in the cytoplasm of Escherichia coli SHuffle Express cells and purification of active enzyme” (BMC Biotechnology, 2018)

How the values were obtained:
[1] = system: N=C(N)NCCC[C@H](NC(=O)OCc1ccccc1)C(=O)N[C@@H](CCCNC(=N)N)C(=O)Nc1ccc([N+](=O)[O-])cc1; assay: purified protein
[2] = system: Cc1cc(=O)oc2cc(NC(=O)[C@H](CCCNC(=N)N)NC(=O)[C@H](CCCNC(=N)N)NC(=O)OCc3ccccc3)ccc12; assay: purified protein
[3] = biological target: T1, EhCP1 (Cysteine Protease 1 of Entamoeba histolytica) (Entamoeba histolytica, UniProt Q01957); assay: inhibition of purified recombinant enzyme, hydrolysis of Z-Arg-Arg-pNA and Z-Arg-Arg-AMC; type: biochemical
T1 construct: gene CP1; pro-mature polypeptide (Ile14 to Leu315), N-terminal hexahistidine tag
T1 sequence (Q01957 14-315): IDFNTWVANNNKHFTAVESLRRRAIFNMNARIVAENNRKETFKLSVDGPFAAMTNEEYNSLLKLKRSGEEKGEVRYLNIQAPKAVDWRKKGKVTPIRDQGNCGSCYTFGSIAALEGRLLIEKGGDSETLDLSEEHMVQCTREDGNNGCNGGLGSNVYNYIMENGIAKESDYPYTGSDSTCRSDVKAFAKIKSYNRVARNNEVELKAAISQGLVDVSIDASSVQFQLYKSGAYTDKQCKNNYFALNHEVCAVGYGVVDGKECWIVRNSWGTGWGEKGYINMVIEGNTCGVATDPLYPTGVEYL

EhCP1 (Cysteine Protease 1 of Entamoeba histolytica) (Entamoeba histolytica HM-1:IMSS)
Km [1]: 57.1 µM | Km [2]: 6.7 µM

CC(C)C[C@H](NC(=O)[C@H]1O[C@@H]1C(=O)O)C(=O)NCCCCN=C(N)N [E-64, L-trans-3-carboxyoxiran-2-carbonyl-L-leucylagmatine]
IC50 [3]: 1000 nM
